Reference: patent US11766444B2, “Pharmaceutical composition for preventing or treating degenerative brain disorders including HDL-APOM-S1P as active ingredient” (Kyungpook National University Industry-Academic Cooperation …, priority 2017, dated 2023)

Columns and labels:
Type in all cases: in vivo, mouse
amyloid-β = assay: Amyloid-β deposition in brain tissue (cerebral cortex), thioflavin S staining and immunofluorescence; settings: APP/PS1 mice, vs 9-month-old untreated APP/PS1 mice
Text: (§1) Transgenic mice overexpressing hAPP695swe (APPswe) and presenilin-1M146V (PS1) mutations were used as mouse models of the Alzheimer's disease. These are mouse lines produced by GlaxoSmithKline (Harlow, UK) with the standard technology for C57BL background (Charles River, UK), which double heterozygote mutant mice (APP/PS1 tg mice) were produced by backcrossing APPswe mice with pure C57BL/6 backgrounds and crossing PS1 mice
(§2) After collecting blood from mice, the obtained blood was separated into erythrocytes and plasma by centrifugation. The separated erythrocytes are reacted with 10 uM sphingosine at 37° C. for 1 hour, and then reacted for 1 hour at 37° C. after mixing again with the separated plasma. […]
(§3) After fixing the cerebral (especially cortex) and hippocampus of mice with 4% paraformaldehyde, the immobilized tissues were incubated with 0.5% thioflavin S (Sigma-Aldrich) or anti-20G10 against Aβ42 (mouse, 1:1000), anti-G30 against Aβ40 (rabbit, 1:1000), anti-lba-1 (rabbit, 1:500, Wako), and anti-GFAP (rabbit, 1:500, DAKO), respectively. […] The sites were analyzed using a laser scanning confocal microscope or Olympus BX51 microscope equipped with Fluoview SV1000 imaging software (Olympus FV1000, Japan). Metamorph software (Molecular Devices) was used to quantify the percentage of area of stained area to area of total tissue. […]

[1] = S1P, ApoM, HDL-S1P and HDL-ApoM levels in plasma of APP/PS1 mice after HDL-ApoM-S1P loading; settings: i.v. 25 μl twice a week for 4 weeks (8 times), vs untreated APP/PS1 mice
Text: as §1
(§4) After collecting blood from mice, the obtained blood was separated into erythrocytes and plasma by centrifugation. The separated erythrocytes are reacted with 10 uM sphingosine at 37° C. for 1 hour, and then reacted for 1 hour at 37° C. after mixing again with the separated plasma. After completion of the reaction, erythrocytes and plasma were separated by centrifugation, and only the plasma was collected again. The plasma thus obtained was loaded with S1P in HDL (HDL-ApoM-S1P loading), which was illustrated in FIG. 1.
The plasma solution thus obtained was intravenously injected 25 μl into mice twice a week for 4 weeks (total 8 times) according to the experimental outline shown in FIG. 2. As a control group, 3 μM S1P (Avanti) and […] ApoM (Mybiosource, SEQ ID NO: 1) were injected intravenously with 25 μl in mice twice a week for 4 weeks (eight times in total).
To collect blood from mouse models (APP/PS1 tg mice or APP/PS1/ApoM tg mice) and normal control mice (WT), the mice were anesthetized first, and 500 μl to 700 μl of blood were collected in heparin tubes (BD Falcon) by cardiac drawing. Each blood sample was then centrifuged at 1,200 rpm for 5 minutes to separate plasma from the supernatant. This plasma sample was stored at −80° C. before being used for analysis.
60 μl of plasma sample was placed in the ultrafast centrifuge tube, and then the same amount of PBS (Gibco) solution was added to form a layer on the plasma. A high speed centrifuge (HITACHI cp100wx Centrifuge P70AT rotor) was used to centrifuge at 70,000 rpm for 3 hours at 4° C. 60 μl of the lower layer of the sample separated into two layers was transferred into a new ultra-centrifuge tube. […]
Extraction and quantification of S1P was performed in the following manner. […] The dried lipid extract was resuspended in 25 μl of 0.2% Igepal CA-630 (Sigma-Aldrich), and the concentration level of each lipid was quantified by the UPLC system using the column ACQUITY BEH Shield RP18 1.7 μm 2.1×50 mm (186002853) and 0.1% of NH4OH.
Using a commercial ELISA kit (CUSABIO Human ApoM ELISA Kit and Mouse ApoM ELISA Kit), the amount of apolipoprotein M (ApoM) contained in the mouse plasma or HDL fractionated therefrom was quantified according to the manufacturer's protocol. […]

microglia = assay: Activity of microglia (Iba1 staining), neuroinflammatory response; settings: APP/PS1 mice, brain tissue, vs untreated APP/PS1 mice
Text: as §1, §2, §3

tau = assay: Tau deposition in brain tissue (AT8 immunofluorescence); settings: APP/PS1 mice, cerebral cortex, vs 9-month-old untreated APP/PS1 mice
Text: as §1, §2, §3

APP/PS1 mice = assay: Morris water maze (MWM) test; settings: 10 days training, probe trial day 11
Text: as §1, §4
The plasma solution thus obtained was intravenously injected 25 μl into mice twice a week for 4 weeks (total 8 times) according to the experimental outline shown in FIG. 2. […]
In order to identify potential effects on learning and memory, Morris water maze (MWM) and fear conditioning experiments were performed according to known methods. […] All experiments were recorded using a charge-coupled device (CCD) camera with video monitor and computer. […]

astrocytes = assay: Activity of astrocytes (GFAP staining), neuroinflammatory response; settings: APP/PS1 mice, brain tissue, vs untreated APP/PS1 mice
Text: as §1, §2, §3

B1: ApoM: control, ApoM (Mybiosource, SEQ ID NO: 1) (protein)
chain: MFHQIWAALLYFYGIILNSIYQCPEHSQLTTLGVDGKEFPEVHLGQWYFIAGAAPTKEELATFDPVDNIVFNMAAGSAPMQLHLRATIRMKDGLCVPRKWIYHLTEGSTDLRTEGRPDMKTELFSSSCPGGIMLNETGQGYQRFLLYNRSPHPPEKCVEEFKSLTSCLDSKAFLLTPRNQEACELSNN
modifications: ApoM
amyloid-β
  Aβ40 deposition in brain tissue: did not show a significant difference
  Aβ42 deposition in brain tissue: did not show a significant difference
[1]
  level of ApoM in plasma: did not show a difference
  level of HDL-ApoM in the HDL fraction: did not show a difference
  level of HDL-S1P in the HDL fraction: did not show a difference
  level of S1P in plasma: did not show a difference
microglia
  inflammatory activity of microglia: no significant difference
tau
  tau deposition (AT8) in brain tissue: did not show a significant difference
APP/PS1 mice
  learning and memory (spatial memory formation), MWM: severe impairment
astrocytes
  inflammatory activity of astrocytes: no significant difference
